# Test results published in US20250250357A1 (NANJING ZAIMING PHARMACEUTICAL, published 2025).
# T1: monkey MSLN full-length protein (NCBI: XP_028696439.1) expressed on HEK293T-monkey MSLN cells (monkey)
# T1 construct: Whole encoded precursor
# T1 chain: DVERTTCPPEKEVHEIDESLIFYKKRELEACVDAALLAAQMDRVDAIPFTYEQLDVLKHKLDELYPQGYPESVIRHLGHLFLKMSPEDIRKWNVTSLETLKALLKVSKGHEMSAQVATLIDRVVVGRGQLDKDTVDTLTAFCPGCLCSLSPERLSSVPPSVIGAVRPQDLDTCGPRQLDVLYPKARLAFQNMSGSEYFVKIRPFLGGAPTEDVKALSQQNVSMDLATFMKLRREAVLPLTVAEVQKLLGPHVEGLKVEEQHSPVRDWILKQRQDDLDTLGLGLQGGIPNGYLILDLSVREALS
# B1: S009-F7.2.3 (antibody, human IgG1, kappa, V domains shown)
# VH: ELQLVESGGDLVKPGGSLKLSCAASGFTFSSNGMSWLRQTPDKRLEWVATISSGGRYTYYPDSVKGRFTISRDNAKNTLYLQMSSLKSEDTAMYYCARRGIYDYFDCWGQGTTLTVSS
# VL: DIQMTQSPASLSISVGETVTITCRASENIHSSLAWYQQKQGKSPQLLVYAATNLADGVPSRFSGSGSGSQYSLKINSLQSEDFGTYYCQHFWGTPWTFGGGTKLDIKR
# notes: human-murine chimeric antibody, human IgG1/kappa constant regions
# B2: S009-F7.18.10 (antibody, human IgG1, kappa, V domains shown)
# VH: QVQLQQSGAELVRPGTSVKVSCKASGYAFTNYLIEWVKQRPGQGLEWIGVINPGSGGTKYNEKFKGKATLTADKSSSTAYMQLSSLTSEDSAVYFCASDYDYDPFAYWGQGTLVTVSA
# VL: DIVMTQSHKFMSTSVGDRVSITCKASQDVSTAVAWYQRKPGQSPKLLIYWASTRHTGVPDRFTGSGSGTDYTLTISYMQAEDLALYYCQQHYSTPYTFGGGTKLEIKR
# notes: as for B1
# B3: Tab106 (YP218, hIgG1) (antibody, V domains shown)
# VH: QQQLEESGGGLVKPEGSLTLTCKASGFDLGFYFYACWVRQAPGKGLEWIACIYTAGSGSTYYASWAKGRFTISKASSTTVTLQMTSLAAADTATYFCARSTANTRSTYYLNLWGPGTLVTVSS
# VL: DVVMTQTPASVSEPVGGTVTIKCQASQRISSYLSWYQQKPGQRPKLLIFGASTLASGVPSRFKGSGSGTEYTLTISDLECADAATYYCQSYAYFDSNNWHAFGGGTEVVVRT
# notes: control antibody; YP218 VH and VL in human IgG1 CH and CL vectors; also called YP218 human IgG1 antibody
# B4: S009-F7.11.11 (antibody, human IgG1, kappa, V domains shown)
# VH: EVQLQQSGPELVKPGASVKIPCKASGYTITDYNMDWVKQSRGKSLEWIGDVFPYNGDSIYNQKFEGRATLTVDKYSSTAYMELRGLTSEDTAVYFCARRKTGTGYFDVWGTGTTVTVSS
# VL: QLVLTQSPAIMSASPGEKVTLTCSASSSVSSTYLSWYLQKPGSSPKLWIYSTSNLASGVPARFSGSGSGTSYSLTISSMEAEDAASYFCHQWSSYPYTFGGGTKLEIKR
# notes: as for B1
# B5: S009-F7.12.13 (antibody, human IgG1, kappa, V domains shown)
# VH: EVQLQQSGPELVKPGASVKIPCKASGYTFTDYNMDWVKQSHGKGLEWIGDINPNTDDTIYNQKFNGKATLTVDKSSSTAYMELRSLTSEDTAVYYCSRRLIGTGYFDVWGTGTTVTVSS
# VL: QIVLTQSPAIMSASPGEKVTLTCSASSSVISTYLCWYRQKPGSSPELWIYSTSNLASGVPARFSGSGSGTSYSLTISSMEAEDAASYFCHQWSNYPYTFGGGTKLGMKR
# notes: as for B1
# B6: S009-F7.6.17 (antibody, human IgG1, kappa, V domains shown)
# VH: QVQLQQSGAELARPGASVKMSCKASGYTFTTYTMHWVKQRPGQGLEWIGYISPTGDFTKYNQKFKDKATLTTDKSSNTAFMQLSSLTSEDSAVYYCARWNGTVWFAYWGQGTLVTVSA
# VL: DIVMTQSQKFMSTSVGDRVTVTCKASQALGTNVAWYQQKPGQSPKVLIYSASYRYSGVPYRFAGGGSGTDFTLTITNVQSEDLAEYFCQQYNNYPLTFGAGTKLELKR
# notes: as for B1
# B7: S009-F7.23.19 (antibody, human IgG1, kappa, V domains shown)
# VH: EVKLVESGGGLVQPGGSLSLSCAASGFTFTDYYMSWVRQPPGKALEWLGFIRSKANAYTTEYSASVKGRFTISRDNSQSILYLQMNDLRAEDSATYYCARYYYYGSGYVWYFDVWGTGTTVTVSS
# VL: DIVMTQSQKFMSTSVGDRVSVTCKASQSVGTNVAWYQQKPGQFPKALIYSASYRYSGVPDRFTGSGSGTDFTLTIINVQSEDLAEYFCQQYNSYPLTFGAGTKLELKR
# notes: as for B1
# B8: S009-F7.21.16 (antibody, human IgG1, kappa, V domains shown)
# VH: QVQLQQPGTELVKPGASVKLSCKASGYTFTTFWMHWVKQRPGQGLEWIGGVNPTNGGTNYNEKFRTKATLTVDKSSTTADMQLSSLTSEDSAVYYCAPHYISSRPGFAYWGQGTLVTVSG
# VL: DIVMTQSQKFMSTSGGDRVSVTCKASQNVGTNVAWYQQKPGQSPKALIYSASYRYSGVPDRFTGSGSGTDFILTISNVQSEDLAEYFCQQYNSYPLTFGGGTKLEIKR
# notes: as for B1
# B9: S009-F7.30.5 (antibody, human IgG1, kappa, V domains shown)
# VH: QVQLQQPKTELVKPGASVKLSCKASGYIFTTYWMHWVKQRPGQGLEWIGNVNPSNGGTMYNEKFERRATLTVDKSSSTADMQLSSLTSEDSAVYYCVPHYIGSRPGFAYWGQGTLVTVSG
# VL: DIVMTQSQKFMSTSVGDRVSVTCKASQNVGTNVAWYQHKPGQSPKALLYSASYRYSGVPDRFTGSGSGTDFTLTITNVQSEDLAEYFCQQYNSYPLTFGGGTKLEIKR
# notes: as for B1
# B10: S009-F7.25.19 (antibody, human IgG1, kappa, V domains shown)
# VH: QVQLQQPGTELVKPGASVKLSCKASGYTFTSYWMHWVKQRPGQGLEWIGNIIPSNGGTKYNEKFKSKATLTVDKSSSTAYMQLSSLTSEDSAVYYCSPHYYGGSPGFAYWGQGTLITVSA
# VL: DIVMTQSQKFMSTSVGDRVSVICKASQNVGTNVAWYQQKPGQSPKALIYSASYRYSGVPDRFTGSGSGTDFTLTISNVQSEDLAEYFCQQYNSYPLTFGGGTKLEIKR
# notes: as for B1
# B11: S009-F7.33.24 (antibody, human IgG1, kappa, V domains shown)
# VH: QVQLQQPGTELVKPGASVKLSCKASGYTFTSYWMHWVKQRPGQGLEWIGNVNPSNGGSNYNEKFKNKATLTVDKSSSTADMQLNSLTSEDSAVYYCAPHYIGSRPGFAYWGQGTLVTVSG
# VL: DIVMTQSQKFMSTSVGDRVSVTCKASQNVGTNIAWYQQKPGQSPKALIYSASYRYSGVPDRFTGSGSGTDFTLTITNVQSEDLAEYFCQQYNSYPLTFGGGTKVEIKR
# notes: as for B1
# B12: S009-F7.26.15 (antibody, human IgG1, kappa, V domains shown)
# VH: DVQLQESGPGLVKPSQTVFLTCTVTGISITTGNYRWSWIRQFPGNKLEWIGYIYYTGFITYNPSLTSRTTITRDTPKNQFFLEMKSLTAEDTATYYCARDDYDYDVFAYWGQGTLVTVSA
# VL: DIQMTQSPASLSASVGETVTITCRASGNIHNYLAWYHQKQGKSPQFLVYKAKTLADGVPSRFSGSGSGTQYSLKINRLQPEDFGSYYCQHFLSIPLTFGAGTKLELKR
# notes: as for B1
# Key:
# [1] = molecular target: T2, human MSLN protein endogenously expressed on OVCAR3 tumor cells (human, UniProt Q13421 296-598); experiment: FACS on OVCAR3 cells;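 also: flow cytometry binding of test antibodies to cells, 2 h incubation on ice, readout as cell mean fluorescence intensity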
# T2 construct: whole, on cells; Endogenous target on OVCAR3 cells; kept apart from the recombinant full-length construct; also called mesothelin
# T2 sequence (Q13421 other isoform, or with tags, fused parts or gaps): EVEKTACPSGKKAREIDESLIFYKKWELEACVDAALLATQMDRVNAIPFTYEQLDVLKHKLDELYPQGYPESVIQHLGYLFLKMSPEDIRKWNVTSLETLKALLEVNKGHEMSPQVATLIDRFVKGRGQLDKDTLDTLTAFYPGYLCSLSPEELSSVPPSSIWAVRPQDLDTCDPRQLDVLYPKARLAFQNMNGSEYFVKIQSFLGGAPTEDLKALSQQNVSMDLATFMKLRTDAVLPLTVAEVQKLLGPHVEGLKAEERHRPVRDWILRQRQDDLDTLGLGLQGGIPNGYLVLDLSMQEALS
# Description: (§1) The desired cells were expanded to the logarithmic growth phase in a T-75 cell culture flask. […] After the cells from the previous step were subjected to cell counting, the cell pellet was resuspended to 2×10⁶ cells/mL in a blocking buffer of [PBS+2% (w/w) BSA] and added into a 96-well FACS reaction plate at 50 μL/well. A chimeric antibody (a sample to be tested) was added at 50 μL/well, and the plate was incubated on ice for 2 h. […] After the plate was centrifuged and washed 5 times with a PBST buffer, assay and analysis were performed by FACS (FACS CantoII, purchased from BD). Data analysis was performed by software (Flowjo) to obtain the mean fluorescence intensity (MFI) of the cells.
# [2] = molecular target: T3, human MSLN-R3 protein (Met487-Ser606 of NCBI AAH09272.1) expressed on HEK293T-hMSLN-R3 cells (human, UniProt Q13421 487-606); experiment: FACS on HEK293T-hMSLN-R3 cells;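 also: flow cytometry binding of test chimeric antibodies to cells after 2 h incubation on ice, with values derived from the mean fluorescence intensity of the cells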
# T3 construct: also called Region3
# T3 sequence (Q13421 495-614): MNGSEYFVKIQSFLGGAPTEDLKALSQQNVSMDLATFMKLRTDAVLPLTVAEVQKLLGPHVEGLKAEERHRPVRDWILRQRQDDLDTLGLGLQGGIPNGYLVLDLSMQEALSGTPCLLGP
# Description: as §1
# [3] = molecular target: T1, monkey MSLN full-length protein (NCBI: …); experiment: FACS on HEK293T-monkey MSLN cells;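 also: flow cytometry binding of chimeric antibodies to the cells, with a 2 h incubation on ice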
# Description: as §1
# [4] = molecular target: T4, human MSLN-R3 protein expressed on HEK293T cells (HEK293T-hMSLN-R3) (human, UniProt Q13421 487-606); experiment: FACS on HEK293T-hMSLN-R3 cells;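 also: chimeric antibodies incubated with cells on ice for 2 h, binding read by flow cytometry as mean fluorescence intensity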
# T4 construct: C-terminal limit uncertain
# T4 sequence (Q13421 495-614): as above
# Description: as §1
EC50 [1] [nM],Maximum mean fluorescence intensity [1],Maximum mean fluorescence intensity [2],binding result [2],EC50 [3] [nM],Maximum mean fluorescence intensity [3],EC50 [4] [nM],Maximum mean fluorescence intensity [4],EC50 [2] [nM],binding result [3],Binder
1.74,22800,33,no binding,,,,,,,B1
3.29,29900,39,no binding,0.47,50600,,,,,B2
,,,,,,1,24500,,,B3
0.86,31800,6260,,0.41,49500,,,0.28,,B4
0.32,21400,6610,,6.34,7630,,,0.12,,B5
0.99,31800,6420,,0.7,56100,,,0.31,,B6
0.15,29300,6570,,0.13,54300,,,0.05,,B7
0.52,32600,6820,,0.3,50900,,,0.16,,B8
0.66,31800,6160,,0.34,47400,,,0.24,,B9
0.18,24200,5350,,~0.16,43200,,,0.06,,B10
0.15,31200,6480,,0.13,47300,,,0.06,,B11
0.2,16200,6940,,,108,,,0.09,no binding,B12
